From publication PMC5291256 (Nucleic Acids Research, 2016)

Biological target: T1, SFR1^dN202 mutant protein (mouse, UniProt Q8BP27 203-319)
T1 sequence (looked up): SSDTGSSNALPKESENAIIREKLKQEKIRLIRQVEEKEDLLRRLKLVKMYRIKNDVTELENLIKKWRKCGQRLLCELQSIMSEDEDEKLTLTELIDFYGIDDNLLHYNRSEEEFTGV
Test: AUC

B1: mouse SWI5 (natural protein, UniProt Q8K3D3 1-89, looked up)
chain: MIDENNDVSEEALSSDIKKLKEKHDMLDKEISQLIAEGYRVIELEKHISLLHEYNDIKDVSQMLLGKLAVTRGVTTKELYPDFDLNLND
- stoichiometry N: 1
